Laboratory results: publication PMC12143592, “Bacterial RecD2 is a processive single-stranded DNA translocase with strand-switching capacity at DNA forks” (Nucleic Acids Research, 2025)

T1: RecD2 (His-tagged) (Bacillus subtilis, UniProt O34481 1-798)
T1 sequence: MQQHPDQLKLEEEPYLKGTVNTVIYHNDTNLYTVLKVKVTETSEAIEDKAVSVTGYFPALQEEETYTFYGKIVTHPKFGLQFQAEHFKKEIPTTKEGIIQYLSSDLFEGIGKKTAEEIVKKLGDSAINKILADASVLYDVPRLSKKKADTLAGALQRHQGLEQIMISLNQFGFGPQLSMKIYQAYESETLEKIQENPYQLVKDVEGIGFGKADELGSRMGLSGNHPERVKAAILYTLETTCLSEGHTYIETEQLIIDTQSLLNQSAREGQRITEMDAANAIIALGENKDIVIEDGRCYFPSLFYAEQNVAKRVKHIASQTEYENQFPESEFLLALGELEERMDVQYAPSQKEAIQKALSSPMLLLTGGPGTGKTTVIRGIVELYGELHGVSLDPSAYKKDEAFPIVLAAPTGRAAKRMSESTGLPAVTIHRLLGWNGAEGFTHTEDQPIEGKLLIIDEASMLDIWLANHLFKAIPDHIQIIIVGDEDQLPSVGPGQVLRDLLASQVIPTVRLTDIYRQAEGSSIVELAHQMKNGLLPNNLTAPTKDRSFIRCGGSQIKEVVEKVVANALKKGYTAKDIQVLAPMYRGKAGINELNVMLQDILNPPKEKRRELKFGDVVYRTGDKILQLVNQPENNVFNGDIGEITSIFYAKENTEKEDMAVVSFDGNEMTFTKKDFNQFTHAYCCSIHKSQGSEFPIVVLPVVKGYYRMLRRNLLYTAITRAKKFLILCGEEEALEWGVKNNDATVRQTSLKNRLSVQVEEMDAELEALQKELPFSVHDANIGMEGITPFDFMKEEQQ


Legend:
RecD2 (His-tagged) [1] = biological target: T1, RecD2 (His-tagged); test: EMSA; conditions: 2 mM MgCl2, 1 mM ATPgS, EMSA: 0.25 nM 32P-DNA, buffer B (composition not in material), 2 mM MgCl2 (or 10 mM), 15 min 37 C, then 0.05% glutaraldehyde 15 min 37 C, 8% PAGE …
RecD2 (His-tagged) [2] = biological target: T1, RecD2 (His-tagged); test: EMSA; 2 mM MgCl2, 1 mM ATPgS; EMSA: 0.25 nM 32P-DNA, buffer B (composition not in material), 1 mM ATPgS, 2 mM MgCl2 (or 10 mM), 15 min 37 C, then 0.05% glutaraldehyde 15 min 37 C, 8% PAGE; single-molecule: buffer A (composition not in material); conditions: protein: recombinant; tags: 6xHis (not removed); label: 32P
RecD2 (His-tagged) [3] = biological target: T1, RecD2 (His-tagged); test: EMSA; 10 mM MgCl2, 1 mM ATPgS; EMSA: 0.25 nM 32P-DNA, buffer B (composition not in material), 1 mM ATPgS, 2 mM MgCl2 (or 10 mM), 15 min 37 C, then 0.05% glutaraldehyde 15 min 37 C, 8% PAGE; single-molecule: buffer A (composition not in material); conditions: protein: recombinant; tags: 6xHis (not removed); label: 32P
[4] = substrate: Nc1ncnc2c1ncn2[C@@H]1O[C@H](COP(=O)(O)OP(=O)(O)OP(=O)(O)O)[C@@H](O)[C@H]1O; test: coupled ATP/NADH spectrophotometric ATPase assay, Michaelis-Menten fit; format: biochemical, Bacillus subtilis; conditions: ssDNA cofactor dT80 (3 μM nucleotides), 5 nM RecD2, 2 mM MgCl2, pH 7.5, 37 °C, turnover printed as Vmax per RecD2

| Molecule | apparent K (half saturation) (RecD2 (His-tagged) [2]) [nM] | apparent K (half saturation) (RecD2 (His-tagged) [3]) [nM] | other results |
| --- | --- | --- | --- |
| 3'-tailed duplex (30 nt tail) | – | – | K half (RecD2 (His-tagged) [1]): 14 nM |
| 5'-tailed duplex (30 nt tail) | – | – | K half (RecD2 (His-tagged) [1]): 16 nM |
| TTTTTTTTTTTTTTTTTTTTTTTTTTTTTT (ssDNA) [poly(dT)30] | ~6 | – | – |
| CTAATTTACGCTAACCTACGATGAGCAGCC (ssDNA) [30-nt random ssDNA (22-M-30)] | 212 ± 17.7 | 246 ± 20.2 | – |
| 60-nt random ssDNA (17-M-60) (ssDNA) DNA: ACGGCCTAGATCGTGAACCTGCAGGTAAGGGGCTGCTCATCGTAGGTTAGCGTAAATTAG | 13.5 ± 4.2 | 44.2 ± 14.1 | – |
| RecD2 (BsRecD2) (Bacillus subtilis subsp. subtilis str. 168) (protein) MQQHPDQLKLEEEPYLKGTVNTVIYHNDTNLYTVLKVKVTETSEAIEDKAVSVTGYFPALQEEETYTFYGKIVTHPKFGLQFQAEHFKKEIPTTKEGIIQYLSSDLFEGIGKKTAEEIVKKLGDSAINKILADASVLYDVPRLSKKKADTLAGALQRHQGLEQIMISLNQFGFGPQLSMKIYQAYESETLEKIQENPYQLVKDVEGIGFGKADELGSRMGLSGNHPERVKAAILYTLETTCLSEGHTYIETEQLIIDTQSLLNQSAREGQRITEMDAANAIIALGENKDIVIEDGRCYFPSLFYAEQNVAKRVKHIASQTEYENQFPESEFLLALGELEERMDVQYAPSQKEAIQKALSSPMLLLTGGPGTGKTTVIRGIVELYGELHGVSLDPSAYKKDEAFPIVLAAPTGRAAKRMSESTGLPAVTIHRLLGWNGAEGFTHTEDQPIEGKLLIIDEASMLDIWLANHLFKAIPDHIQIIIVGDEDQLPSVGPGQVLRDLLASQVIPTVRLTDIYRQAEGSSIVELAHQMKNGLLPNNLTAPTKDRSFIRCGGSQIKEVVEKVVANALKKGYTAKDIQVLAPMYRGKAGINELNVMLQDILNPPKEKRRELKFGDVVYRTGDKILQLVNQPENNVFNGDIGEITSIFYAKENTEKEDMAVVSFDGNEMTFTKKDFNQFTHAYCCSIHKSQGSEFPIVVLPVVKGYYRMLRRNLLYTAITRAKKFLILCGEEEALEWGVKNNDATVRQTSLKNRLSVQVEEMDAELEALQKELPFSVHDANIGMEGITPFDFMKEEQQ | – | – | Km [4]: 82 µM; kcat [4]: ~223 s⁻¹ |
| 80-nt random ssDNA (17-M-80) (ssDNA) DNA: ACGGCCTAGAACGGCCTAGAACGGCCTAGATCGTGAACCTGCAGGTAAGGGGCTGCTCATCGTAGGTTAGCGTAAATTAG | 11.1 ± 5.4 | 39.1 ± 15.4 | – |
